Test results published in patent publication US6548060 (dated 2003).

Legend:
[1] = molecular target: ASK1 (apoptosis signal-regulating kinase), full-length (UniProt Q99683); experiment: cell-based or functional assay
[2] = molecular target: T1, ASK1 (apoptosis signal-regulating kinase), full-length, Q99683
T1 chain: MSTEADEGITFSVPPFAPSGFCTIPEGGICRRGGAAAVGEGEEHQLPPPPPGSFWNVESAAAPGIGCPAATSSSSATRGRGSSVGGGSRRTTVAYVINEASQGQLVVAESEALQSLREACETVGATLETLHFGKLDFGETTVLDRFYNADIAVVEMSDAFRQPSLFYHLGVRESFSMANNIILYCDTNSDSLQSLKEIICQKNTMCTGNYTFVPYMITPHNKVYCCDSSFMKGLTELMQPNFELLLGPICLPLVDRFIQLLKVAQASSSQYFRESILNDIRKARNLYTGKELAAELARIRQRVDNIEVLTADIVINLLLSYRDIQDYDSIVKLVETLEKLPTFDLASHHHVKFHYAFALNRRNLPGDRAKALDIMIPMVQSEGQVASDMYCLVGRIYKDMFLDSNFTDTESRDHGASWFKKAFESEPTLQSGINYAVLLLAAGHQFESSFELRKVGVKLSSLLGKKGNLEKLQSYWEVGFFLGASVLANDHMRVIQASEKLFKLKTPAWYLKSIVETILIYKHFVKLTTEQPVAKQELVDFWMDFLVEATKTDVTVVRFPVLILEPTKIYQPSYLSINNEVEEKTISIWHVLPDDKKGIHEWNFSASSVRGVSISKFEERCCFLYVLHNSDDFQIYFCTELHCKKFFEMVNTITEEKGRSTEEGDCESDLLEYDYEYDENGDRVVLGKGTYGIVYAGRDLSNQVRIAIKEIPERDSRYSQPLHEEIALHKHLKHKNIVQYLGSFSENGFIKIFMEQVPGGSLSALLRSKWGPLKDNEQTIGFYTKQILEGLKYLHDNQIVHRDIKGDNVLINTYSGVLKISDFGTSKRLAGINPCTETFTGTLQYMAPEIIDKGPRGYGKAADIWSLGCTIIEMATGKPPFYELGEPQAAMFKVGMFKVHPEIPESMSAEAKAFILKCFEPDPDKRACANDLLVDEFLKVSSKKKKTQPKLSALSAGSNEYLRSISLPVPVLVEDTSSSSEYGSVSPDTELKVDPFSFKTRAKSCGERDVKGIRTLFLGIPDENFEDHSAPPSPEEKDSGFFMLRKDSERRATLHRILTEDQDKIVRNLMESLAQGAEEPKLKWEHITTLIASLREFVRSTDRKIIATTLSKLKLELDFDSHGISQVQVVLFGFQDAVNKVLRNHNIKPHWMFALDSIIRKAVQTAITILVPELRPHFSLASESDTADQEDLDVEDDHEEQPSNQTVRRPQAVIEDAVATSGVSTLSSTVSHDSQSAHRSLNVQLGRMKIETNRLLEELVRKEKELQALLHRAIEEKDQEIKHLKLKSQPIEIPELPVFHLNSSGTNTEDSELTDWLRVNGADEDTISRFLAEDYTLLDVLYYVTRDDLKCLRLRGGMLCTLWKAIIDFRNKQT

[3] = molecular target: T2, N-terminal 236 aa extension of human glutaminyl-tRNA synthetase, P47897
T2 chain: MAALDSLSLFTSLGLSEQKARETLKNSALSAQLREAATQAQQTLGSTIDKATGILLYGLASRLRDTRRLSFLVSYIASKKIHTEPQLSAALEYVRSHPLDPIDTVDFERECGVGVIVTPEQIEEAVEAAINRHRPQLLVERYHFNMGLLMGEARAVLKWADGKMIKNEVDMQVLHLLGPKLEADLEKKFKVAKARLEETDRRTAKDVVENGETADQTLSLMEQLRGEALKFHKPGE

[4] = molecular target: constitutive active mutant of Daxx, C-terminal 242 aa, Q9UER7
Sequence of constitutive active mutant of Daxx, C-terminal 242 aa, Q9UER7 (Q9UER7 whole entry, looked up, change not shown): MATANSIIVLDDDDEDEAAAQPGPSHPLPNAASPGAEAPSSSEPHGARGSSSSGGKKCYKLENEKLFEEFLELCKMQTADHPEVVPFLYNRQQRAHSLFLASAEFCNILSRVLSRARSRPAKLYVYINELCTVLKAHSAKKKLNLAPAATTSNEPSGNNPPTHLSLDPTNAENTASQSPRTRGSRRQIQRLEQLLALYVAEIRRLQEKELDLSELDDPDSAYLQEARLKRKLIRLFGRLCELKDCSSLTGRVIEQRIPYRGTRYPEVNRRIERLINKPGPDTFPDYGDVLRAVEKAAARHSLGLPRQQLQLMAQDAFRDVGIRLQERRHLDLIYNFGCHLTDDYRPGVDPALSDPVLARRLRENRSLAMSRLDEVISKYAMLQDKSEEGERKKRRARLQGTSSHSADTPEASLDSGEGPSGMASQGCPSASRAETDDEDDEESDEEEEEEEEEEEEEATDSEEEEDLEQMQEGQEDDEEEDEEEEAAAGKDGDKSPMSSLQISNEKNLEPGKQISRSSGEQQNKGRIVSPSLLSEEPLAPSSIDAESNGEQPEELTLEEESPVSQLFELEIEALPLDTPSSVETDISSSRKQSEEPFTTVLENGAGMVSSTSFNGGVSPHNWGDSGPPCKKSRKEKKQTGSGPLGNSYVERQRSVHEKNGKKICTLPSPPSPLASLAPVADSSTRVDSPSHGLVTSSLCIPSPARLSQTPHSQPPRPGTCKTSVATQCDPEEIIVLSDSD

In the case of “constitutive active mutant of Daxx, C-terminal 242 aa (from UniProt Q9UER7 499-740)”, the apoptotic cells (HeLa, beta-galactosidase co-transfection, apoptotic morphology) [1] is reported as 11%.

B1: C-terminal 539 aa catalytic domain of human glutaminyl-tRNA synthetase (protein)
chain: NYKTPGYVVTPHTMNLLKQHLEITGGQVRTRFPPEPNGILHIGHAKAINFNFGYAKANNGICFLRFDDTNPEKEEAKFFTAICDMVAWLGYTPYKVTYASDYFDQLYAWAVELIRRGLAYVCHQRGEELKGHNTLPSPWRDRPMEESLLLFEAMRKGKFSEGEATLRMKLVMEDGKMDPVAYRVKYTPHHRTGDKWCIYPTYDYTHCLCDSIEHITHSLCTKEFQARRSSYFWLCNALDVYCPVQWEYGRLNLHYAVVSKRKILQLVATGAVRDWDDPRLFTLTALRRRGFPPEAINNFCARVGVTVAQTTMEPHLLEACVRDVLNDTAPRAMAVLESLRVIITNFPAAKSLDIQVPNFPADETKGFHQVPFAPIVFIERTDFKEEPEPGFKRLAWGQPVGLRHTGYVIELQHVVKGPSGCVESLEVTCRRADAGEKPKAFIHWVSQPLMCEVRLYERLFQHKNPEDPTEVPGGFLSDLNLASLHVVDAALVDCSVALAKPFDKFQFERLGYFSVDPDSHQGKLVFNRTVTLKEDPGKV
In the case of B1, the “kinase activity of ASK1 (MBP phosphorylation, immunocomplex kinase assay)” value (from here on “kinase activity of ASK1”) [2] is reported as “The ASK1 activity was inhibited by the expression of QRS-F and -C but not of QRS -N”.

B2: ASK1 (apoptosis signal-regulating kinase), full-length (protein)
chain: MSTEADEGITFSVPPFAPSGFCTIPEGGICRRGGAAAVGEGEEHQLPPPPPGSFWNVESAAAPGIGCPAATSSSSATRGRGSSVGGGSRRTTVAYVINEASQGQLVVAESEALQSLREACETVGATLETLHFGKLDFGETTVLDRFYNADIAVVEMSDAFRQPSLFYHLGVRESFSMANNIILYCDTNSDSLQSLKEIICQKNTMCTGNYTFVPYMITPHNKVYCCDSSFMKGLTELMQPNFELLLGPICLPLVDRFIQLLKVAQASSSQYFRESILNDIRKARNLYTGKELAAELARIRQRVDNIEVLTADIVINLLLSYRDIQDYDSIVKLVETLEKLPTFDLASHHHVKFHYAFALNRRNLPGDRAKALDIMIPMVQSEGQVASDMYCLVGRIYKDMFLDSNFTDTESRDHGASWFKKAFESEPTLQSGINYAVLLLAAGHQFESSFELRKVGVKLSSLLGKKGNLEKLQSYWEVGFFLGASVLANDHMRVIQASEKLFKLKTPAWYLKSIVETILIYKHFVKLTTEQPVAKQELVDFWMDFLVEATKTDVTVVRFPVLILEPTKIYQPSYLSINNEVEEKTISIWHVLPDDKKGIHEWNFSASSVRGVSISKFEERCCFLYVLHNSDDFQIYFCTELHCKKFFEMVNTITEEKGRSTEEGDCESDLLEYDYEYDENGDRVVLGKGTYGIVYAGRDLSNQVRIAIKEIPERDSRYSQPLHEEIALHKHLKHKNIVQYLGSFSENGFIKIFMEQVPGGSLSALLRSKWGPLKDNEQTIGFYTKQILEGLKYLHDNQIVHRDIKGDNVLINTYSGVLKISDFGTSKRLAGINPCTETFTGTLQYMAPEIIDKGPRGYGKAADIWSLGCTIIEMATGKPPFYELGEPQAAMFKVGMFKVHPEIPESMSAEAKAFILKCFEPDPDKRACANDLLVDEFLKVSSKKKKTQPKLSALSAGSNEYLRSISLPVPVLVEDTSSSSEYGSVSPDTELKVDPFSFKTRAKSCGERDVKGIRTLFLGIPDENFEDHSAPPSPEEKDSGFFMLRKDSERRATLHRILTEDQDKIVRNLMESLAQGAEEPKLKWEHITTLIASLREFVRSTDRKIIATTLSKLKLELDFDSHGISQVQVVLFGFQDAVNKVLRNHNIKPHWMFALDSIIRKAVQTAITILVPELRPHFSLASESDTADQEDLDVEDDHEEQPSNQTVRRPQAVIEDAVATSGVSTLSSTVSHDSQSAHRSLNVQLGRMKIETNRLLEELVRKEKELQALLHRAIEEKDQEIKHLKLKSQPIEIPELPVFHLNSSGTNTEDSELTDWLRVNGADEDTISRFLAEDYTLLDVLYYVTRDDLKCLRLRGGMLCTLWKAIIDFRNKQT
For B2, the “kinase activity of ASK1” value [3] was “The ASK1 activity was inhibited by the expression of QRS-F and -C but not of QRS -N” and the “ASK1 kinase activity (GST-SEK1 as substrate)” value [4] was “The active mutant of Daxx (Daxx-CA) activated ASK1”.

B3: human glutaminyl-tRNA synthetase, full-length (protein)
chain: MAALDSLSLFTSLGLSEQKARETLKNSALSAQLREAATQAQQTLGSTIDKATGILLYGLASRLRDTRRLSFLVSYIASKKIHTEPQLSAALEYVRSHPLDPIDTVDFERECGVGVIVTPEQIEEAVEAAINRHRPQLLVERYHFNMGLLMGEARAVLKWADGKMIKNEVDMQVLHLLGPKLEADLEKKFKVAKARLEETDRRTAKDVVENGETADQTLSLMEQLRGEALKFHKPGENYKTPGYVVTPHTMNLLKQHLEITGGQVRTRFPPEPNGILHIGHAKAINFNFGYAKANNGICFLRFDDTNPEKEEAKFFTAICDMVAWLGYTPYKVTYASDYFDQLYAWAVELIRRGLAYVCHQRGEELKGHNTLPSPWRDRPMEESLLLFEAMRKGKFSEGEATLRMKLVMEDGKMDPVAYRVKYTPHHRTGDKWCIYPTYDYTHCLCDSIEHITHSLCTKEFQARRSSYFWLCNALDVYCPVQWEYGRLNLHYAVVSKRKILQLVATGAVRDWDDPRLFTLTALRRRGFPPEAINNFCARVGVTVAQTTMEPHLLEACVRDVLNDTAPRAMAVLESLRVIITNFPAAKSLDIQVPNFPADETKGFHQVPFAPIVFIERTDFKEEPEPGFKRLAWGQPVGLRHTGYVIELQHVVKGPSGCVESLEVTCRRADAGEKPKAFIHWVSQPLMCEVRLYERLFQHKNPEDPTEVPGGFLSDLNLASLHVVDAALVDCSVALAKPFDKFQFERLGYFSVDPDSHQGKLVFNRTVTLKEDPGKV
For B3, the “ASK1 kinase activity enhanced by Daxx-CA (GST-SEK1 as substrate)” value [2] was “QRS inhibited the ASK1 activity enhanced by Daxx” and the “kinase activity of ASK1” value [2] was “The ASK1 activity was inhibited by the expression of QRS-F and -C but not of QRS -N”.
